According to patent EP1354598A2 (ZymoGenetics, Inc., dated 2003):
Each block holds one binder with its values, some of them ahead of it.

Key:
soluble I^125-ztnf4 = target: T1, soluble I^125-ztnf4 (human, UniProt Q9Y275 134-285, limits assumed, 125I-labelled); assay: Scatchard analysis of soluble 125I-ztnf4 on stable BHK transfectants expressing BCMA
T1 construct: also called ztnf4 sol; neutrokine alpha

soluble ztnf4 (human) = soluble ztnf4 (human) (UniProt Q9Y275); assay: cell-based or functional assay

Kd (soluble I^125-ztnf4): 1.25 nM
B1: BCMA (SEQ ID NO:8) (receptor)
chain: MLQMAGQCSQNEYFDSLLHACIPCQLRCSSNTPPLTCQRYCNASVTNSVKGTNAILWTCLGLSLIISLAVFVLMFLLRKISSEPLKDEFKNTGSGLLGMANIDLEKSRTGDEIILPRGLEYTVEECTCEDCIKSKPKVDSDHCFPLPAMEEGATILVTTKTNDYCKSLPAALSATEIEKSISAR
notes: also called BCMA-BHK

inhibition of soluble ztnf4-stimulated human B cell proliferation (3H thymidine, with IL-4) (fold molar excess) (soluble ztnf4 (human)): 10
B2: TACI-Ig soluble receptor (TACI-Fc4 fusion protein) (Fc fusion, part only; not given: Fc4 part, part only)
chain, part: MSGLGRSRRGGRSRVDQEERFPQGLWTGVAMRSCPEEQYWDPLLGTCMSCKTICNHQSQRTCAAFCRSLSCRKEQGKFYDHLLRDCISCASICGQHPKQCAYFCENKLRSPVNLPPELRRQRSGEVENNSDNSGRYQGLEHRGSEASPALPGLKLSADQVALVYS
